According to patent EP4792821A2 (Beijing Youcare Kechuang Pharmaceutical Technology Co., Ltd., dated 2026):
The star is where a group is joined. Succinyl(4-O-cholesteryl) = CC(C)CCC[C@@H](C)[C@H]1CC[C@H]2[C@@H]3CC=C4C[C@@H](OC(=O)CCC(=O)*)CC[C@]4(C)[C@H]3CC[C@]12C

B1: Compound 32 (peptide)
peptide: Ac-ILELVNKKIEQSLKFIEKSDKLLENEAAAKK(Succinyl(4-O-cholesteryl))-NH2
SMILES: CC[C@H](C)[C@H](NC(C)=O)C(=O)N[C@@H](CC(C)C)C(=O)N[C@@H](CCC(=O)O)C(=O)N[C@@H](CC(C)C)C(=O)N[C@H](C(=O)N[C@@H](CC(N)=O)C(=O)N[C@@H](CCCCN)C(=O)N[C@@H](CCCCN)C(=O)N[C@H](C(=O)N[C@@H](CCC(=O)O)C(=O)N[C@@H](CCC(N)=O)C(=O)N[C@@H](CO)C(=O)N[C@@H](CC(C)C)C(=O)N[C@@H](CCCCN)C(=O)N[C@@H](Cc1ccccc1)C(=O)N[C@H](C(=O)N[C@@H](CCC(=O)O)C(=O)N[C@@H](CCCCN)C(=O)N[C@@H](CO)C(=O)N[C@@H](CC(=O)O)C(=O)N[C@@H](CCCCN)C(=O)N[C@@H](CC(C)C)C(=O)N[C@@H](CC(C)C)C(=O)N[C@@H](CCC(=O)O)C(=O)N[C@@H](CC(N)=O)C(=O)N[C@@H](CCC(=O)O)C(=O)N[C@@H](C)C(=O)N[C@@H](C)C(=O)N[C@@H](C)C(=O)N[C@@H](CCCCN)C(=O)N[C@@H](CCCCNC(=O)CCC(=O)O[C@H]1CC[C@@]2(C)C(=CC[C@H]3[C@@H]4CC[C@H]([C@H](C)CCCC(C)C)[C@@]4(C)CC[C@@H]32)C1)C(N)=O)[C@@H](C)CC)[C@@H](C)CC)C(C)C
B2: Compound 19 (peptide)
peptide: Ac-FDASIEEVNRRIEESLRRIEESDRRLEAAAKK(Succinyl(4-O-cholesteryl))-NH2
SMILES: CC[C@H](C)[C@H](NC(=O)[C@H](CO)NC(=O)[C@H](C)NC(=O)[C@H](CC(=O)O)NC(=O)[C@H](Cc1ccccc1)NC(C)=O)C(=O)N[C@@H](CCC(=O)O)C(=O)N[C@@H](CCC(=O)O)C(=O)N[C@H](C(=O)N[C@@H](CC(N)=O)C(=O)N[C@@H](CCCNC(=N)N)C(=O)N[C@@H](CCCNC(=N)N)C(=O)N[C@H](C(=O)N[C@@H](CCC(=O)O)C(=O)N[C@@H](CCC(=O)O)C(=O)N[C@@H](CO)C(=O)N[C@@H](CC(C)C)C(=O)N[C@@H](CCCNC(=N)N)C(=O)N[C@@H](CCCNC(=N)N)C(=O)N[C@H](C(=O)N[C@@H](CCC(=O)O)C(=O)N[C@@H](CCC(=O)O)C(=O)N[C@@H](CO)C(=O)N[C@@H](CC(=O)O)C(=O)N[C@@H](CCCNC(=N)N)C(=O)N[C@@H](CCCNC(=N)N)C(=O)N[C@@H](CC(C)C)C(=O)N[C@@H](CCC(=O)O)C(=O)N[C@@H](C)C(=O)N[C@@H](C)C(=O)N[C@@H](C)C(=O)N[C@@H](CCCCN)C(=O)N[C@@H](CCCCNC(=O)CCC(=O)O[C@H]1CC[C@@]2(C)C(=CC[C@H]3[C@@H]4CC[C@H]([C@H](C)CCCC(C)C)[C@@]4(C)CC[C@@H]32)C1)C(N)=O)[C@@H](C)CC)[C@@H](C)CC)C(C)C
B3: Compound 12 (peptide)
peptide: Ac-FDASIEEVNRRIEESLRRIEESDRRLEVNKKAGSGSGK(Succinyl(4-O-cholesteryl))-NH2
SMILES: CC[C@H](C)[C@H](NC(=O)[C@H](CO)NC(=O)[C@H](C)NC(=O)[C@H](CC(=O)O)NC(=O)[C@H](Cc1ccccc1)NC(C)=O)C(=O)N[C@@H](CCC(=O)O)C(=O)N[C@@H](CCC(=O)O)C(=O)N[C@H](C(=O)N[C@@H](CC(N)=O)C(=O)N[C@@H](CCCNC(=N)N)C(=O)N[C@@H](CCCNC(=N)N)C(=O)N[C@H](C(=O)N[C@@H](CCC(=O)O)C(=O)N[C@@H](CCC(=O)O)C(=O)N[C@@H](CO)C(=O)N[C@@H](CC(C)C)C(=O)N[C@@H](CCCNC(=N)N)C(=O)N[C@@H](CCCNC(=N)N)C(=O)N[C@H](C(=O)N[C@@H](CCC(=O)O)C(=O)N[C@@H](CCC(=O)O)C(=O)N[C@@H](CO)C(=O)N[C@@H](CC(=O)O)C(=O)N[C@@H](CCCNC(=N)N)C(=O)N[C@@H](CCCNC(=N)N)C(=O)N[C@@H](CC(C)C)C(=O)N[C@@H](CCC(=O)O)C(=O)N[C@H](C(=O)N[C@@H](CC(N)=O)C(=O)N[C@@H](CCCCN)C(=O)N[C@@H](CCCCN)C(=O)N[C@@H](C)C(=O)NCC(=O)N[C@@H](CO)C(=O)NCC(=O)N[C@@H](CO)C(=O)NCC(=O)N[C@@H](CCCCNC(=O)CCC(=O)O[C@H]1CC[C@@]2(C)C(=CC[C@H]3[C@@H]4CC[C@H]([C@H](C)CCCC(C)C)[C@@]4(C)CC[C@@H]32)C1)C(N)=O)C(C)C)[C@@H](C)CC)[C@@H](C)CC)C(C)C
B4: Compound 33 (peptide)
peptide: Ac-SLEQVNKKINQSLKVNKKSDKLLENEAAAKK(Succinyl(4-O-cholesteryl))-NH2
SMILES: CC[C@H](C)[C@H](NC(=O)[C@H](CCCCN)NC(=O)[C@H](CCCCN)NC(=O)[C@H](CC(N)=O)NC(=O)[C@@H](NC(=O)[C@H](CCC(N)=O)NC(=O)[C@H](CCC(=O)O)NC(=O)[C@H](CC(C)C)NC(=O)[C@H](CO)NC(C)=O)C(C)C)C(=O)N[C@@H](CC(N)=O)C(=O)N[C@@H](CCC(N)=O)C(=O)N[C@@H](CO)C(=O)N[C@@H](CC(C)C)C(=O)N[C@@H](CCCCN)C(=O)N[C@H](C(=O)N[C@@H](CC(N)=O)C(=O)N[C@@H](CCCCN)C(=O)N[C@@H](CCCCN)C(=O)N[C@@H](CO)C(=O)N[C@@H](CC(=O)O)C(=O)N[C@@H](CCCCN)C(=O)N[C@@H](CC(C)C)C(=O)N[C@@H](CC(C)C)C(=O)N[C@@H](CCC(=O)O)C(=O)N[C@@H](CC(N)=O)C(=O)N[C@@H](CCC(=O)O)C(=O)N[C@@H](C)C(=O)N[C@@H](C)C(=O)N[C@@H](C)C(=O)N[C@@H](CCCCN)C(=O)N[C@@H](CCCCNC(=O)CCC(=O)O[C@H]1CC[C@@]2(C)C(=CC[C@H]3[C@@H]4CC[C@H]([C@H](C)CCCC(C)C)[C@@]4(C)CC[C@@H]32)C1)C(N)=O)C(C)C
B5: Compound 10 (peptide)
peptide: Ac-KIEEVNKKIEESLKKIEESDKKLEEVNKKLEAAAKK(Succinyl(4-O-cholesteryl))-NH2
SMILES: CC[C@H](C)[C@H](NC(=O)[C@H](CCCCN)NC(C)=O)C(=O)N[C@@H](CCC(=O)O)C(=O)N[C@@H](CCC(=O)O)C(=O)N[C@H](C(=O)N[C@@H](CC(N)=O)C(=O)N[C@@H](CCCCN)C(=O)N[C@@H](CCCCN)C(=O)N[C@H](C(=O)N[C@@H](CCC(=O)O)C(=O)N[C@@H](CCC(=O)O)C(=O)N[C@@H](CO)C(=O)N[C@@H](CC(C)C)C(=O)N[C@@H](CCCCN)C(=O)N[C@@H](CCCCN)C(=O)N[C@H](C(=O)N[C@@H](CCC(=O)O)C(=O)N[C@@H](CCC(=O)O)C(=O)N[C@@H](CO)C(=O)N[C@@H](CC(=O)O)C(=O)N[C@@H](CCCCN)C(=O)N[C@@H](CCCCN)C(=O)N[C@@H](CC(C)C)C(=O)N[C@@H](CCC(=O)O)C(=O)N[C@@H](CCC(=O)O)C(=O)N[C@H](C(=O)N[C@@H](CC(N)=O)C(=O)N[C@@H](CCCCN)C(=O)N[C@@H](CCCCN)C(=O)N[C@@H](CC(C)C)C(=O)N[C@@H](CCC(=O)O)C(=O)N[C@@H](C)C(=O)N[C@@H](C)C(=O)N[C@@H](C)C(=O)N[C@@H](CCCCN)C(=O)N[C@@H](CCCCNC(=O)CCC(=O)O[C@H]1CC[C@@]2(C)C(=CC[C@H]3[C@@H]4CC[C@H]([C@H](C)CCCC(C)C)[C@@]4(C)CC[C@@H]32)C1)C(N)=O)C(C)C)[C@@H](C)CC)[C@@H](C)CC)C(C)C
B6: Compound 31 (peptide)
peptide: Ac-SDEQVNEKINQSLAFIRRIRKLLHNEAAAKK(Succinyl(4-O-cholesteryl))-NH2
SMILES: CC[C@H](C)[C@H](NC(=O)[C@H](Cc1ccccc1)NC(=O)[C@H](C)NC(=O)[C@H](CC(C)C)NC(=O)[C@H](CO)NC(=O)[C@H](CCC(N)=O)NC(=O)[C@H](CC(N)=O)NC(=O)[C@@H](NC(=O)[C@H](CCCCN)NC(=O)[C@H](CCC(=O)O)NC(=O)[C@H](CC(N)=O)NC(=O)[C@@H](NC(=O)[C@H](CCC(N)=O)NC(=O)[C@H](CCC(=O)O)NC(=O)[C@H](CC(=O)O)NC(=O)[C@H](CO)NC(C)=O)C(C)C)[C@@H](C)CC)C(=O)N[C@@H](CCCNC(=N)N)C(=O)N[C@@H](CCCNC(=N)N)C(=O)N[C@H](C(=O)N[C@@H](CCCNC(=N)N)C(=O)N[C@@H](CCCCN)C(=O)N[C@@H](CC(C)C)C(=O)N[C@@H](CC(C)C)C(=O)N[C@@H](Cc1c[nH]cn1)C(=O)N[C@@H](CC(N)=O)C(=O)N[C@@H](CCC(=O)O)C(=O)N[C@@H](C)C(=O)N[C@@H](C)C(=O)N[C@@H](C)C(=O)N[C@@H](CCCCN)C(=O)N[C@@H](CCCCNC(=O)CCC(=O)O[C@H]1CC[C@@]2(C)C(=CC[C@H]3[C@@H]4CC[C@H]([C@H](C)CCCC(C)C)[C@@]4(C)CC[C@@H]32)C1)C(N)=O)[C@@H](C)CC

Each binder was assayed against F protein of RSV A long virus strain (Respiratory Syncytial Virus (RSV) A …, UniProt P12568 26-574) (assay: cell-based or functional assay).
Sequence of F protein of RSV A long virus strain (P12568 26-574): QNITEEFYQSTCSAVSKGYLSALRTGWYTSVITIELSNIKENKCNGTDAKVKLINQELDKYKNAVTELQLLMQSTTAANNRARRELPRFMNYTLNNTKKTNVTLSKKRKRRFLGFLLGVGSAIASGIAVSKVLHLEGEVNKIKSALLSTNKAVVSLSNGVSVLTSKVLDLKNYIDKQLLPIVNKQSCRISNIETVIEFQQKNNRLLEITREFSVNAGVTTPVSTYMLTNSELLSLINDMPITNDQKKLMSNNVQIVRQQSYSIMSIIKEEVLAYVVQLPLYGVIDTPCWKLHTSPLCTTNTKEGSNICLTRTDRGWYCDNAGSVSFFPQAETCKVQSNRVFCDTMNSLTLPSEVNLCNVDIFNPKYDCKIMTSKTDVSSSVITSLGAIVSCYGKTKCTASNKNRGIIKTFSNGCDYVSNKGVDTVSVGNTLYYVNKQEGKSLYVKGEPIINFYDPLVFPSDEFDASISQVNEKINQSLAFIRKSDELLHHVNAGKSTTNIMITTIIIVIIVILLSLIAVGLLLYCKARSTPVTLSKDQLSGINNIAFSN
With B1 the “IC50/nM, plaque reduction, RSV A long on HEp-2 cells (Table 2, Cell fusion inhibition activity)” value was 296 nM. Ac-YDELVFDASQVNEKINQSLEKIRKSDELLHNV-NH2 [Compound 23] was tested, and the “IC50/nM, plaque reduction, RSV A long on HEp-2 cells (Table 2, Cell fusion inhibition activity)” value was 2330 nM. With B2 the “IC50/nM, plaque reduction, RSV A long on HEp-2 cells (Table 2, Cell fusion inhibition activity)” value was 16.2 nM. For B3, the “IC50/nM, plaque reduction, RSV A long on HEp-2 cells (Table 2, Cell fusion inhibition activity)” value was 28.4 nM. For Ac-DDEFNQKINEVNEKIEEILKKIEESDRKLEESDKKA-NH2 [Compound 2], the “IC50/nM, plaque reduction, RSV A long on HEp-2 cells (Table 2, Cell fusion inhibition activity)” value was greater than 8000 nM. In the case of B4, the “IC50/nM, plaque reduction, RSV A long on HEp-2 cells (Table 2, Cell fusion inhibition activity)” value is reported as 5040 nM. For Ac-WDEFDKKIEEVNKKIEESLKKIEESDKKLEEVNKKLGSGSGK(Succinyl(4-O-cholesteryl))-NH2 [Compound 11], the “IC50/nM, plaque reduction, RSV A long on HEp-2 cells (Table 2, Cell fusion inhibition activity)” value was 99.1 nM. Ac-FDFDEFDASISQVNEKINESLAFIRLAFIRKSDELLEAAAKK-NH2 [Compound 24] was tested, and the “IC50/nM, plaque reduction, RSV A long on HEp-2 cells (Table 2, Cell fusion inhibition activity)” value was 2650 nM. B5 was tested, and the “IC50/nM, plaque reduction, RSV A long on HEp-2 cells (Table 2, Cell fusion inhibition activity)” value was 18.1 nM. In the case of Ac-FDASIEEVNRRIEESLRRIEESDRRLEVNKKA-NH2 [Compound 1], the “IC50/nM, plaque reduction, RSV A long on HEp-2 cells (Table 2, Cell fusion inhibition activity)” value is reported as 1360 nM. In the case of Ac-DEFDKKKIEEVNKKIEESLKKIEESDKKLEEV-NH2 [Compound 3], the “IC50/nM, plaque reduction, RSV A long on HEp-2 cells (Table 2, Cell fusion inhibition activity)” value is reported as 4430 nM. In the case of B6, the “IC50/nM, plaque reduction, RSV A long on HEp-2 cells (Table 2, Cell fusion inhibition activity)” value is reported as 2220 nM.
